Measured values as given in US20250011363A1, “OPTIMIZED SHORTENED PEPTIDE THAT BINDS TO ACETYLCHOLINE RECEPTOR, AND USE THEREOF” (SKINMED CO., LTD., priority 2021, published 2025).

These substances were tested against acetylcholine receptor (Homo sapiens, UniProt P02708) (assay: SPR binding affinity (RU) of optimized 5mer/6mer/7mer peptides, Examples 6-7). Settings: SPR, Resonance Units; peptides tested at 10 μM; 6mer-2 Bottom sequence.
Summary of the method: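 Peptides were tested at 10 μM by surface plasmon resonance against the receptor, with binding reported as response units. Library sequences were built from frequent (top) or infrequent (bottom) amino acid combinations in 5mer, 6mer-1 and 6mer-2 series.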

acetylcholine receptor, sequence (P02708 21-457): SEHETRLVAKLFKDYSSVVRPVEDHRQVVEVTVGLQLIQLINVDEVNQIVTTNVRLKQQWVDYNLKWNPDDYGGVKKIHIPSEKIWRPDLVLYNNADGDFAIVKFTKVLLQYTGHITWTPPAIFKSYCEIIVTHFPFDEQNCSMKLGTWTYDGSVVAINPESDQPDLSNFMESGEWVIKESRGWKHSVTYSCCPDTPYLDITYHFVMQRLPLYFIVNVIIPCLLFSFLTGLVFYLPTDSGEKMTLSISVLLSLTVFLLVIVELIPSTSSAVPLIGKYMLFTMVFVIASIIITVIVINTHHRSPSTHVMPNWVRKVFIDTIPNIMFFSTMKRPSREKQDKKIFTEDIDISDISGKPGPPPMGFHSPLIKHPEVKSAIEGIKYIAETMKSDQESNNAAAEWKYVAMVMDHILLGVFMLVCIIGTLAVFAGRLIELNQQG

| Substance | Binding affinity [Ru] |
| --- | --- |
| 6mer-2-905 (RPKERR) | 26 |
| 6mer-2-906 (KYCDKK) | 40 |
| 6mer-2-907 (RTMNRR) | 25 |
| 6mer-2-908 (KYKKKR) | 33 |
| 6mer-2-909 (RCNPRR) | 42 |
| 6mer-2-910 (RHEHRR) | 21 |
| 6mer-2-911 (KMSGKR) | 21 |
| 6mer-2-912 (RAPIRR) | 27 |
| 6mer-2-913 (KFKNRR) | 25 |
| 6mer-2-914 (KDDIKK) | 25 |
| 6mer-2-915 (KNCWKR) | 29 |
| 6mer-2-916 (KTTEKR) | 22 |
| 6mer-2-917 (RFCWRK) | 23 |
| 6mer-2-918 (KNWMRK) | 35 |
| 6mer-2-919 (KAKHKR) | 27 |
| 6mer-2-920 (RMTIKK) | 26 |
| 6mer-2-921 (RPKAKK) | 22 |
| 6mer-2-922 (KDNVRR) | 41 |
| 6mer-2-923 (RCCAKK) | 33 |
| 6mer-2-924 (RFDHKK) | 28 |
| 6mer-2-925 (RASVKR) | 23 |
| 6mer-2-926 (RPTVKR) | 31 |
| 6mer-2-927 (RFNPRK) | 39 |

| Substance | Binding affinity [Ru] |
| --- | --- |
| 6mer-2-928 (KFCIRR) | 28 |
| 6mer-2-929 (KNHMRK) | 26 |
| 6mer-2-930 (RTWIKR) | 37 |
| 6mer-2-931 (RYCFKR) | 29 |
| 6mer-2-932 (RIPWRR) | 35 |
| 6mer-2-933 (RYSMKR) | 34 |
| 6mer-2-934 (KYKDRR) | 26 |
| 6mer-2-935 (KKCNKK) | 22 |
| 6mer-2-936 (KPPAKK) | 21 |
| 6mer-2-937 (RASHRR) | 35 |
| 6mer-2-938 (RIEHKR) | 40 |
| 6mer-2-939 (KKCARR) | 22 |
| 6mer-2-940 (RNENKK) | 41 |
| 6mer-2-941 (RDEDKR) | 33 |
| 6mer-2-942 (KTDKRK) | 22 |
| 6mer-2-943 (KIDHRR) | 41 |
| 6mer-2-944 (KPEDKK) | 35 |
| 6mer-2-945 (KKCERK) | 42 |
| 6mer-2-946 (KPCEKK) | 21 |
| 6mer-2-947 (KTNWRK) | 41 |
| 6mer-2-948 (RPPFRR) | 28 |
| 6mer-2-949 (RPNARR) | 39 |
| 6mer-2-950 (KYNKRR) | 26 |

| Substance | Binding affinity [Ru] |
| --- | --- |
| 6mer-2-951 (RADEKK) | 42 |
| 6mer-2-952 (KYWGRR) | 24 |
| 6mer-2-953 (KESVKK) | 25 |
| 6mer-2-954 (KCTIRK) | 32 |
| 6mer-2-955 (RMPERR) | 29 |
| 6mer-2-956 (KFCWRR) | 28 |
| 6mer-2-957 (RDTHRR) | 40 |
| 6mer-2-958 (KFKARK) | 28 |
| 6mer-2-959 (RTNARK) | 35 |
| 6mer-2-960 (RDCVKR) | 29 |
| 6mer-2-961 (KNTKKR) | 21 |
| 6mer-2-962 (KKSNRK) | 30 |
| 6mer-2-963 (KAKHRR) | 37 |
| 6mer-2-964 (KCEDRK) | 41 |
| 6mer-2-965 (KPWFKR) | 36 |
| 6mer-2-966 (KEDAKR) | 41 |
| 6mer-2-967 (RTSNKK) | 35 |
| 6mer-2-968 (RHWEKK) | 39 |
| 6mer-2-969 (KATHKR) | 33 |
| 6mer-2-970 (KDDVRR) | 27 |
| 6mer-2-971 (KEMFRK) | 29 |
| 6mer-2-972 (KAMFRR) | 38 |
| 6mer-2-973 (KCPIKK) | 41 |

| Substance | Binding affinity [Ru] |
| --- | --- |
| 6mer-2-974 (RFDDRR) | 38 |
| 6mer-2-975 (KKTMKK) | 38 |
| 6mer-2-976 (RTTGKK) | 26 |
| 6mer-2-977 (REMKRK) | 30 |
| 6mer-2-978 (KEPHRR) | 28 |
| 6mer-2-979 (KKAFKK) | 22 |
| 6mer-2-980 (KESGKR) | 34 |
| 6mer-2-981 (RCEIRK) | 32 |
| 6mer-2-982 (RMHAKK) | 38 |
| 6mer-2-983 (RTWHRR) | 37 |
| 6mer-2-984 (KDMWKK) | 43 |
| 6mer-2-985 (REMNKR) | 34 |
| 6mer-2-986 (KNWARR) | 27 |
| 6mer-2-987 (RCHPKK) | 22 |
| 6mer-2-988 (KMCEKK) | 41 |
| 6mer-2-989 (KAHNKR) | 22 |
| 6mer-2-990 (RKKMKR) | 41 |
| 6mer-2-991 (KCHFRR) | 30 |
| 6mer-2-992 (RMHFRR) | 33 |
| 6mer-2-993 (RHDVKK) | 29 |
| 6mer-2-994 (KYCIKK) | 41 |

Same assay, conditions: SPR, peptides at 10 μM; 6mer-2 Bottom sequence

| Substance | Binding affinity [Ru] |
| --- | --- |
| 6mer-2-995 (KFWEKK) | 38 |
| 6mer-2-996 (RHDARK) | 40 |
| 6mer-2-997 (KISFKK) | 30 |
| 6mer-2-998 (KEMWKK) | 43 |
| 6mer-2-999 (RATIKR) | 31 |
| 6mer-2-1000 (KCHDKK) | 41 |
| 6mer-2-1001 (RKKFKK) | 37 |
| 6mer-2-1002 (RCNDKR) | 42 |
| 6mer-2-1003 (KPEWKR) | 42 |
| 6mer-2-1004 (RDTHKR) | 38 |
| 6mer-2-1005 (RFKARR) | 23 |
| 6mer-2-1006 (RATMRR) | 30 |
| 6mer-2-1007 (RHTNKK) | 42 |
| 6mer-2-1008 (RAWKKR) | 38 |
| 6mer-2-1009 (KINPRK) | 34 |
| 6mer-2-1010 (RANHKK) | 36 |
| 6mer-2-1011 (RAEFRR) | 22 |
| 6mer-2-1012 (KASAKK) | 30 |
| 6mer-2-1013 (KPPDKR) | 23 |
| 6mer-2-1014 (RPPMRR) | 34 |
| 6mer-2-1015 (RDEMKR) | 29 |
| 6mer-2-1016 (RNEEKR) | 41 |
| 6mer-2-1017 (RAPVRR) | 40 |
| 6mer-2-1018 (RPTKKK) | 24 |
| 6mer-2-1019 (RNTWKK) | 23 |
| 6mer-2-1020 (KHDKKR) | 21 |
| 6mer-2-1021 (RYTPKR) | 39 |
| 6mer-2-1022 (KCNPRR) | 22 |
